Publication PMC5446404

Molecular target: recombinant human fortilin (Strep-tag II), biotinylated (human) (UniProt P13693)
Assay: BLI
Conditions: domain or fragment

Sequence of GST-IRE1α-L (aa 1-70) (O75460 19-70): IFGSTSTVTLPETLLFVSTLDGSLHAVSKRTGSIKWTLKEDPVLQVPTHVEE
Sequence of recombinant human fortilin (Strep-tag II), biotinylated (human) (P13693 whole entry): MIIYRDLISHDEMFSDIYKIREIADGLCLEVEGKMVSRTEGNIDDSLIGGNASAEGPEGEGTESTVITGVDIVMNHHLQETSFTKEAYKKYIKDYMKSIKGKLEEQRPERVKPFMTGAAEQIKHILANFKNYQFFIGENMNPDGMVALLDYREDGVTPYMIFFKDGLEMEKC

GST-IRE1α-L (aa 1-70) (from UniProt O75460 19-70)
Kd: 18 mM
